Consider 2 molecules from patent publication US8697369B2, “Method for screening a test substance for activating a receptor associated with FGF 21 activity” (National Institute of Advanced Industrial Science and …, priority 2007, dated 2014).

Entries after “also recorded” stand apart in the source; their conditions may differ.

Experiment [1] concerns the target T1, R1c/betaKlotho-expressing cells (Mus musculus, UniProt P16092+Q99N32).
T1 construct: the entire-length cDNA of mouse FGFR1c had been cloned; the entire-length cDNA of mouse betaKlotho was cloned into an animal cell expression vector; expressed in transfected cells; host or cells: BaF3 (mouse pro-B) cells
Briefly: Phosphorylation of FRS2 and MAPK (Western blotting) in R1c/betaKlotho-expressing cells. The class given is cell-based. The conditions noted are these: presence of heparin; 10 minutes stimulation. The procedure:
(§1) Each FGFR/betaKlotho-expressing cells obtained in Example 6 were stimulated with FGF, and the activated state (phosphorylated state) of a signaling molecule FRS2 (fibroblast growth factor receptor substrate 2) located downstream of FGFR, and that of MAPK (mitogen activated protein kinase; alias: ERK (extracellular signal-regulated kinase; in general, there are two types of ERKs, namely, ERK1 with a molecular weight of 44 kDa and ERK2 with a molecular weight of 42 kDa)), were analyzed. Different types of cells were stimulated with each FGF in the presence of heparin for 10 minutes, and a cell lysate was then prepared. Thereafter, the phosphorylated degree was evaluated by measuring it by a Western blotting method using a commercially available anti-phosphorylation FRS2 antibody or an anti-phosphorylation MAPK antibody.
For orientation: Immunoblotting shows a protein as a band on a membrane.

For experiment [2], the target named is T2, FGFR2c/betaKlotho-expressing cells (Mus musculus, UniProt P21803+Q99N32).
T2 construct: the entire-length cDNA of mouse betaKlotho was cloned into an animal cell expression vector; expressed in transfected cells; host or cells: BaF3 (mouse pro-B) cells
Briefly: Phosphorylation of FRS2 and MAPK (Western blotting) in FGFR2c/betaKlotho-expressing cells. Particulars: presence of heparin; 10 minutes stimulation. The format is cell-based. On the procedure: as §1

Experiment [3] relates to FGFR4/betaKlotho-expressing cells. Briefly: Phosphorylation of FRS2 and MAPK (Western blotting) in FGFR4/betaKlotho-expressing cells. The format is cell-based, mouse. Particulars: presence of heparin; 10 minutes stimulation. On the procedure:
as §1

For experiment [4], the system named is R3c/betaKlotho-expressing cells. Briefly: Phosphorylation of FRS2 and MAPK (Western blotting) in R3c/betaKlotho-expressing cells. The format is cell-based, mouse. Particulars: presence of heparin; 10 minutes stimulation. The procedure:
as §1

Experiment [5] relates to FGFR4/betaKlotho-expressing BaF3 cells. Briefly: DNA synthesis (thymidine incorporation) in FGFR4/betaKlotho-expressing BaF3 cells. The conditions noted are these: BaF3 cells expressing FGFR4 and betaKlotho; presence of heparin. The format is cell-based, mouse. The procedure:
(§2) A commonly used measurement method is a cell growth stimulating activity measurement method described in Ornitz, D. M., Xu, J., Colvin, J. S., McEwen, D. G., MacArthur, C. A., Coulier, F., Gao, G. and Goldfarb, M. (1996) Receptor specificity of the fibroblast growth factor family. J Biol Chem, 271, 15292-15297. The summary thereof is as follows. FGF used as a measurement target is added to a culture solution containing a cultured cell having an FGF receptor on the surface thereof, and the obtained mixture is cultured for a certain period of time. Thereafter, a labeled thymidine is added to the culture solution, followed by further culture for a certain period of time. By measuring the amount of the labeled thymidine incorporated into polymeric DNA during the culture, the degree of FGF to activate DNA synthesis is evaluated. (In the present invention as well, this method was adopted when the activity of FGF21 was measured in Examples 4, 5, 6, 8, 9, and 10.)
(§3) Whether other receptor molecules can also act as such FGF receptors was examined. An expression vector containing each FGFR (FGFR1b, R1c, R2b, R2c, R3b, R3c, and R4) (described in Ornitz, D. M., Xu, J., Colvin, J. S., McEwen, D. G., MacArthur, C. A., Coulier, F., Gao, G. and Goldfarb, M. (1996) Receptor specificity of the fibroblast growth factor family. J Biol Chem, 271, 15292-15297.) was introduced into betaKlotho-expressing BaF3 cells, so as to obtain clones that were resistant to Puromycin and G418, thereby obtaining FGFR/betaKlotho-expressing cells. Such cells were stimulated with FGF21, and the amount of DNA synthesized was measured.
(§4) The activity of FGF21 to stimulate the DNA synthesis of BaF3 cells that had expressed each FGFR (FGFR1c, R2c, F3c, and R4) as well as betaKlotho was compared with the activity of FGF19, which was evolutionally relative to FGF21. […] The cells were stimulated with FGF21, FGF19, and FGF1 in the presence of heparin, while changing the amounts of FGF21, FGF19, and FGF1, as shown in the figure, and the amount of DNA synthesized was then measured.

Experiment [6] concerns the target T3, FGFR2c/betaKlotho-expressing BaF3 cells (Mus musculus, UniProt P21803+Q99N32).
T3 construct: the entire-length cDNA of mouse betaKlotho was cloned into an animal cell expression vector; expressed in transfected cells; host or cells: BaF3 (mouse pro-B) cells
Briefly: DNA synthesis (thymidine incorporation) in FGFR2c/betaKlotho-expressing BaF3 cells. The format is cell-based. Particulars: BaF3 cells expressing FGFR2c and betaKlotho; presence of heparin. On the procedure:
as §2, §3, §4
On the technique in general: Dividing cells build labelled thymidine or BrdU into new DNA.

Experiment [7] deals with betaKlotho/FGFR-expressing cells (FGFR1b, R1c, R2b, R2c, R3b, R3c, R4). Nature of the experiment: Thymidine incorporation in betaKlotho/FGFR-expressing BaF3 cells with or without heparin. The format is cell-based, mouse. Particulars: presence versus absence of heparin. On the procedure:
An expression vector of such FGF receptor (FGFR1b, R1c, R2b, F2c, R3b, R3c, and R4) was introduced into BaF3 cells expressing betaKlotho, and each type of betaKlotho/FGFR-expressing cells were stimulated with FGF21 and FGF1 in the presence or absence of heparin, so that the ability of the cells to incorporate thymidine therein was measured. As a result, it was shown that both FGFR1c- and FGFR3c-expressing cells react with FGF21.
as §3

For experiment [8], the system named is FGFR3c/betaKlotho-expressing BaF3 cells. Briefly: DNA synthesis (thymidine incorporation) in FGFR3c/betaKlotho-expressing BaF3 cells. The class given is cell-based, mouse. The conditions noted are these: BaF3 cells expressing FGFR3c and betaKlotho. The procedure: as §2, §3
The activity of FGF21 to stimulate the DNA synthesis of BaF3 cells that had expressed each FGFR (FGFR1c, R2c, F3c, and R4) as well as betaKlotho was compared with the activity of FGF19, which was evolutionally relative to FGF21. By procedures opposite to those of Example 5, namely, an expression vector containing betaKlotho was introduced into BaF3 cells that had expressed each type of FGFR, so as to obtain Puromycin- and G418-resistant clones, thereby obtaining FGFR/betaKlotho-expressing cells. The cells were stimulated with FGF21, FGF19, and FGF1 in the presence of heparin, while changing the amounts of FGF21, FGF19, and FGF1, as shown in the figure, and the amount of DNA synthesized was then measured.

FGFR3c/betaKlotho-expressing BaF3 cells, sequence (Q61851 21-369 limits assumed): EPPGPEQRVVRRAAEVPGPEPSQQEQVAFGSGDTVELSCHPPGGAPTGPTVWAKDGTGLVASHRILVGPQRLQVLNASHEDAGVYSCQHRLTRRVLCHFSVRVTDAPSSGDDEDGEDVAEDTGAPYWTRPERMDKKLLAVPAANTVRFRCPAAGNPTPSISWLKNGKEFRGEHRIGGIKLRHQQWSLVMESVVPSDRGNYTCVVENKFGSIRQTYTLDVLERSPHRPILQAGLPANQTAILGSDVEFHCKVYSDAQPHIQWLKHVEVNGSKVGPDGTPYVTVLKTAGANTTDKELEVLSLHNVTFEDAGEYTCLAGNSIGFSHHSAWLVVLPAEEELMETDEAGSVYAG
FGFR3c/betaKlotho-expressing BaF3 cells, sequence (Q99N32 whole entry, further chain): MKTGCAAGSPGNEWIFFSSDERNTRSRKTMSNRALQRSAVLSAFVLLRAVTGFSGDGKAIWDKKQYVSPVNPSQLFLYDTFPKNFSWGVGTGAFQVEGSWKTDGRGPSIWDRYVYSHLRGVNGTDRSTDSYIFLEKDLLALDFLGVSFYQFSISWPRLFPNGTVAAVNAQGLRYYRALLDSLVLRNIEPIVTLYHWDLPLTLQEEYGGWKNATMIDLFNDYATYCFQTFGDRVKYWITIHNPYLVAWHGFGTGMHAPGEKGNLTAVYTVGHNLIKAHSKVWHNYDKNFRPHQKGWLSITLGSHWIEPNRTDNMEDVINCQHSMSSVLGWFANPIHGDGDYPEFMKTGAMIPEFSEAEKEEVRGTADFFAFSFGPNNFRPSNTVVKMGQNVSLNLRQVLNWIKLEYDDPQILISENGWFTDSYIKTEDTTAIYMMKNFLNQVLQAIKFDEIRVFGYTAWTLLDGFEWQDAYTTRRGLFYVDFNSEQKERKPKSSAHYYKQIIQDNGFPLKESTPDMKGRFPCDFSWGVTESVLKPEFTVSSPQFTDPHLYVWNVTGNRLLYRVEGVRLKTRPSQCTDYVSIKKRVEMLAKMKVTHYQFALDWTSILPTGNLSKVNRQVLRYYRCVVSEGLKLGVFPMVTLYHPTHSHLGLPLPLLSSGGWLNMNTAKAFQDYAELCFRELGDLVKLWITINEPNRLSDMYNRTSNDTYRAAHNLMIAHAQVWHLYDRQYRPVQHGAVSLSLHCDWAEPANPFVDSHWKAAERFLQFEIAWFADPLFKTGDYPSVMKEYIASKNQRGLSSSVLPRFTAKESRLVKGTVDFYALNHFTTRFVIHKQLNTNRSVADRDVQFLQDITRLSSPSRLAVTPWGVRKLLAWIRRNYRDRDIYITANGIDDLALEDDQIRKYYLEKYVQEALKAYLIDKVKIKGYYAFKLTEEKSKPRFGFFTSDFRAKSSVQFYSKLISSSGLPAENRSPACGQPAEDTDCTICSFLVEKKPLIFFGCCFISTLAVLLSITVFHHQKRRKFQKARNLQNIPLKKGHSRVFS
FGFR4/betaKlotho-expressing cells, sequence (Q03142 143-366 limits assumed): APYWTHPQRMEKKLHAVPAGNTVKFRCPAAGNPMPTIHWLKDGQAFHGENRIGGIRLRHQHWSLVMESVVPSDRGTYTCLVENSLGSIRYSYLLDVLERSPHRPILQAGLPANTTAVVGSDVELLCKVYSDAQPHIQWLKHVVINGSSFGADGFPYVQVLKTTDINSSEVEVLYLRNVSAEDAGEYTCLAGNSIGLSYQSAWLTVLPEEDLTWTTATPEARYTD
FGFR4/betaKlotho-expressing cells, sequence (as listed by the source): as the sequence (Q99N32 whole entry, further chain) above
T1 sequence (P16092 22-822): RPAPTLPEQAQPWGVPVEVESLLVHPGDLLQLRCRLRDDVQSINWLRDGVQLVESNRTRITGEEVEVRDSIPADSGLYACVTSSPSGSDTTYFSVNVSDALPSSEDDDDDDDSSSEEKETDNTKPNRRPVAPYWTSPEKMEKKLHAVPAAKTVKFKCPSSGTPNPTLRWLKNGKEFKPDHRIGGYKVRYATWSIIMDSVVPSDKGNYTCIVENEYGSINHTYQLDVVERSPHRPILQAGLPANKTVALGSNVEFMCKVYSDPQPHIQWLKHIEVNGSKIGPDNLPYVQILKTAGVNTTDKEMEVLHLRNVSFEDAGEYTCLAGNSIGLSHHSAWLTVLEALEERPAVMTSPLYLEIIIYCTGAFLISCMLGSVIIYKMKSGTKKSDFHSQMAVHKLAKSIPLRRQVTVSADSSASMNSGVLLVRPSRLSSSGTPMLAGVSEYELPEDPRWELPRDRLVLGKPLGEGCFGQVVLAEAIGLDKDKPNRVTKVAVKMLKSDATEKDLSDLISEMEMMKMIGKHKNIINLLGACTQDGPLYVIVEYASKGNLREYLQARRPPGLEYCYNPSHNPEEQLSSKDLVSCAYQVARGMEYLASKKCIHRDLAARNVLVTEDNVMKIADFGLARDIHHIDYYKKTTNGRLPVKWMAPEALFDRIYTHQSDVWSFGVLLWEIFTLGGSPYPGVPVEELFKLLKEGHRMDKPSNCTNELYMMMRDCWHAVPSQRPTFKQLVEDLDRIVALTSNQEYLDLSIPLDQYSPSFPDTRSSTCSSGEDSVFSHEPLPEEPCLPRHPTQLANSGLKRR
T1 sequence (Q99N32 whole entry): as the sequence (Q99N32 whole entry, further chain) above
FGFR4/betaKlotho-expressing BaF3 cells, sequence (Q03142 17-366 limits assumed): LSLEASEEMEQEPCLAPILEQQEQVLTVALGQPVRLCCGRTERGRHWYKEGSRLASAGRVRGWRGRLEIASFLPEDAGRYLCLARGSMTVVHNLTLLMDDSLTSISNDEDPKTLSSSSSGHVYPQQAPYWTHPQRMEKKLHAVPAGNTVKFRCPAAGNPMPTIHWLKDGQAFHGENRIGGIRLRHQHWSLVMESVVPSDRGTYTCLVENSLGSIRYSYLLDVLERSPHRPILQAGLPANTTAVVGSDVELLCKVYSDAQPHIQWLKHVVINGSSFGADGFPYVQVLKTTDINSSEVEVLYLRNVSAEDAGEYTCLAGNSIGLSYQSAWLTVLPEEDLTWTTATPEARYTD
FGFR4/betaKlotho-expressing BaF3 cells, sequence (Q99N32 whole entry, further chain): as the sequence (Q99N32 whole entry, further chain) above
T3 sequence (P21803 22-821): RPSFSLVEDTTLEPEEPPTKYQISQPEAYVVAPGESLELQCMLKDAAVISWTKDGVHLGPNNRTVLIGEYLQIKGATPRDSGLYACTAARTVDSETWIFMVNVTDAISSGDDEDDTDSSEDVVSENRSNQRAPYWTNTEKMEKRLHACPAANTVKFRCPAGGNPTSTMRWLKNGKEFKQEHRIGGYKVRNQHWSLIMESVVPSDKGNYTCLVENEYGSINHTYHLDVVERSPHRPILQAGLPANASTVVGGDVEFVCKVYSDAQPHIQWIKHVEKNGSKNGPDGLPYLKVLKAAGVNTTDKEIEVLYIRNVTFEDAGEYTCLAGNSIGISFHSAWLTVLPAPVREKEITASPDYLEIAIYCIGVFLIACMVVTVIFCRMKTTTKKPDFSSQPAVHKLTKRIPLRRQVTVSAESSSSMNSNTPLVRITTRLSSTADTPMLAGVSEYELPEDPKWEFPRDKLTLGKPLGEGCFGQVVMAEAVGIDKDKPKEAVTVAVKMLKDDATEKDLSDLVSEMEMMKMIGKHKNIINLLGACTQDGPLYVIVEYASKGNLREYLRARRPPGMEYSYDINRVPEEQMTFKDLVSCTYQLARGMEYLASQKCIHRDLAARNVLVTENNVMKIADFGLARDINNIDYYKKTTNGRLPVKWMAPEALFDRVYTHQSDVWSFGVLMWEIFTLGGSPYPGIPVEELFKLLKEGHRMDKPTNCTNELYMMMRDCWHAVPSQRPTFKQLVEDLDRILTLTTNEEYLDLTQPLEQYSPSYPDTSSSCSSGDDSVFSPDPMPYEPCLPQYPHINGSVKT
T3 sequence (Q99N32 whole entry): as the sequence (Q99N32 whole entry, further chain) above
T2 sequence (P21803 22-821): as the sequence (P21803 22-821) above
T2 sequence (Q99N32 whole entry): as the sequence (Q99N32 whole entry, further chain) above
R3c/betaKlotho-expressing cells, sequence (Q61851 21-369 limits assumed): as the sequence (Q61851 21-369 limits assumed) above
R3c/betaKlotho-expressing cells, sequence (Q99N32 whole entry, further chain): as the sequence (Q99N32 whole entry, further chain) above

On to “FGF1: conventional FGF used as a control”, for which the “phosphorylation of FRS2 and MAPK” value in experiment [1], in experiment [2], in experiment [3] and in experiment [4] was “significantly increase the phosphorylation” each time. Moreover, the “DNA synthesis (thymidine incorporated into the cells)” value in experiment [5], in experiment [6] and in experiment [8] was “reacts with all of the receptors” throughout. Besides, the “influence of heparin on stimulus transmission activity (thymidine incorporation)” value in experiment [7] is “sharply increased in the presence of heparin”.

B1: FGF21: fibroblast growth factor 21; mouse-derived protein used in Examples 1-7 and 10-13 (protein)
chain: AYPIPDSSPLLQFGGQVRQRYLYTDDDQDTEAHLEIREDGTVVGAAHRSPESLLELKALKPGVIQILGVKASRFLCQQPDGALYGSPHFDPEACSFRELLLEDGYNVYQSEAHGLPLRLPQKDSPNQDATSWGPVRFLPMPGLLHEPQDQAGFLPPEPPDVGSSDPLSMVEPLQGRSPSYAS
Regarding B1, the “phosphorylation of FRS2 and MAPK” value in experiment [1] was “increases the phosphorylation”; in experiment [2] it was “only in FGFR1c/betaKlotho-expressing cells and FGFR3c/betaKlotho-expressing cells”; in experiment [3], “only in FGFR1c/betaKlotho-expressing cells and FGFR3c/betaKlotho-expressing cells”; in experiment [4] it was “increases the phosphorylation”. Moreover, the “DNA synthesis (thymidine incorporated into the cells)” value is “reacts only with FGFR1c and FGFR3c” in experiment [5]; “slightly react with FGFR2c” in experiment [6]; “reacted with FGF21; also recorded: activates” in experiment [8]. Further, the “influence of heparin on stimulus transmission activity (thymidine incorporation)” value in experiment [7] was “does not significantly influence”.
